Laboratory results taken from patent US20170306033A1 (Amgen, published 2017).

T1: human PAC1 receptor (human, UniProt P41586 21-468)
T1 sequence: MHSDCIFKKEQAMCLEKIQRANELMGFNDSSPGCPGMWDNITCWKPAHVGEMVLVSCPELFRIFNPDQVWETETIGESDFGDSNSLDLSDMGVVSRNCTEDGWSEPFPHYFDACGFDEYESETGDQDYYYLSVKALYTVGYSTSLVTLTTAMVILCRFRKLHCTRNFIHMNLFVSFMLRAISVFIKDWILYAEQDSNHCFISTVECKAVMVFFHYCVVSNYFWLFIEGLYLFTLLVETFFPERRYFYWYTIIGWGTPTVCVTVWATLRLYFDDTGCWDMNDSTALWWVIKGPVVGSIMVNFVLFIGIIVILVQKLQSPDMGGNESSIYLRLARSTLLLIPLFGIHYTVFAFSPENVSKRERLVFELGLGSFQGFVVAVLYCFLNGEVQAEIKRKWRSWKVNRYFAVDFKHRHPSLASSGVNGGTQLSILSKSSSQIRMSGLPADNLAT


Columns and labels:
[1] = molecular target: T1, human PAC1 receptor; assay: cell-based or functional assay
[2] = molecular target: human CGRP receptor (human, UniProt Q16602 23-461; O60894 27-148); assay: cell-based or functional assay
Chain of human CGRP receptor (Q16602 23-461 limits assumed, chain 1 of 2): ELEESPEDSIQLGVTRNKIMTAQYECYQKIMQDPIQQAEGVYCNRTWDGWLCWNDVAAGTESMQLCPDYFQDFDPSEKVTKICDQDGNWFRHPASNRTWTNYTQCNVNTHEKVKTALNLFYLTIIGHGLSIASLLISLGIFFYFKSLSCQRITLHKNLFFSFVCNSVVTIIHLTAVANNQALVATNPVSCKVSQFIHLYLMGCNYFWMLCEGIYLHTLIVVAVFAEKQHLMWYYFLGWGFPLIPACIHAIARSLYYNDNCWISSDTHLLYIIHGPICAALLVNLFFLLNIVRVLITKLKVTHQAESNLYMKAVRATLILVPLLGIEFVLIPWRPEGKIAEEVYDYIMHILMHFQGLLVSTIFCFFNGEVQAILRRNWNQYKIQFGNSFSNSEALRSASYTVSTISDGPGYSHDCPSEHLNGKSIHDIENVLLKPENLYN
Chain of human CGRP receptor (O60894 27-148 limits assumed, chain 2 of 2): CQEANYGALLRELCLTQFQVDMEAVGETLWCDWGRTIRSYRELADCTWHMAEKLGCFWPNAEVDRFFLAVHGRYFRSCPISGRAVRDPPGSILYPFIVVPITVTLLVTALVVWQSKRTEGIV

% inhibition of human PAC1 [1] [%]	% inhibition of human CGRPR [2] [%]	Binder
92	88	iPS:327680 (bispecific antibody, human IgG1, kappa, N297G) light 1: EIVLTQSPATLSLSPGERATLSCRASQSVGRSLHWYQQKPGQAPRLLIKYASQSLSGIPARFSGSGSGTDFTLTISSLEPEDFAVYYCHQSSRLPFTFGPGTKVDIKRTVAAPSVFIFPPSDEQLKSGTASVVCLLNNFYPREAKVQWKVDNALQSGNSQESVTEQDSKDSTYSLESTLTLSKADYEKHKVYACEVTHQGLSSPVTKSFNRGEC heavy 1: not shown light 2: EIVLTQSPGTLSLSPGERATLSCRASQSVSSGYLTWYQQKPGQAPRLLIYGASSRATGIPDRFSGSGSGTDFTLTISRLEPEDFAVYYCQQYGNSLSRFGQGTKLEIKRTVAAPSVFIFPPSDEQLKSGTASVVCLLNNFYPREAKVQWKVDNALQSGNSQESVTEQDSKDSTYSLKSTLTLSKADYEKHKVYACEVTHQGLSSPVTKSFNRGEC heavy 2: not shown
43	81	iPS:327677 (bispecific antibody, human IgG1, kappa, N297G) light 1: not shown heavy 1: not shown light 2: EIVLTQSPGTLSLSPGERATLSCRASQSVSSGYLTWYQQKPGQAPRLLIYGASSRATGIPDRFSGSGSGTDFTLTISRLEPEDFAVYYCQQYGNSLSRFGQGTKLEIKRTVAAPSVFIFPPSDEQLKSGTASVVCLLNNFYPREAKVQWKVDNALQSGNSQESVTEQDSKDSTYSLKSTLTLSKADYEKHKVYACEVTHQGLSSPVTKSFNRGEC heavy 2: not shown
30	70	iPS:327683 (bispecific antibody, human IgG1, kappa, N297G) light 1: DIQLTQSPSFLSASVGDRVTITCRASQSIGRSLHWYQQKPGKAPKLLIKYASQSLSGVPSRFSGSGSGTEFTLTISSLQPEDFATYYCHQSSRLPFTFGEGTKVDIKRTVAAPSVFIFPPSDEQLKSGTASVVCLLNNFYPREAKVQWKVDNALQSGNSQESVTEQDSKDSTYSLESTLTLSKADYEKHKVYACEVTHQGLSSPVTKSFNRGEC heavy 1: not shown light 2: EIVLTQSPGTLSLSPGERATLSCRASQSVSSGYLTWYQQKPGQAPRLLIYGASSRATGIPDRFSGSGSGTDFTLTISRLEPEDFAVYYCQQYGNSLSRFGKGTKLEIKRTVAAPSVFIFPPSDEQLKSGTASVVCLLNNFYPREAKVQWKVDNALQSGNSQESVTEQDSKDSTYSLKSTLTLSKADYEKHKVYACEVTHQGLSSPVTKSFNRGEC heavy 2: QVQLVESGGGVVQPGRSLRLSCAASGFTFSSYGMHWVRQAPGKELEWVAVIWYDGSNKYYAESVKGRFIISRDKSKNTLYLQMNSLRAEDTAVYYCARAGGIAAAGLYYYYGMDVWGQGTTVTVSSASTKGPSVFPLAPSSKSTSGGTAALGCLVKDYFPEPVTVSWNSGALTSGVHTFPAVLQSSGLYSLESVVTVPSSSLGTQTYICNVNHKPSNTKVDKKVEPKSCDKTHTCPPCPAPELLGGPSVFLFPPKPKDTLMISRTPEVTCVVVDVSHEDPEVKFNWYVDGVEVHNAKTKPCEEQYGSTYRCVSVLTVLHQDWLNGKEYKCKVSNKALPAPIEKTISKAKGQPREPQVYTLPPSRKEMTKNQVSLTCLVKGFYPSDIAVEWESNGQPENNYKTTPPVLKSDGSFFLYSKLTVDKSRWQQGNVFSCSVMHEALHNHYTQKSLSLSPGK
73	72	iPS:327681 (bispecific antibody, human IgG1, kappa, N297G) light 1: DIQMTQSPSSLSASVGDRITITCRASQSISRYLNWYQQKPGKAPKLLIYAASSLQSGIPSRFSGSGSGTDFTLTINSLQPEDFATYFCQQSYSPPFTFGEGTKVDIKRTVAAPSVFIFPPSDEQLKSGTASVVCLLNNFYPREAKVQWKVDNALQSGNSQESVTEQDSKDSTYSLESTLTLSKADYEKHKVYACEVTHQGLSSPVTKSFNRGEC heavy 1: not shown light 2: EIVLTQSPGTLSLSPGERATLSCRASQSVSSGYLTWYQQKPGQAPRLLIYGASSRATGIPDRFSGSGSGTDFTLTISRLEPEDFAVYYCQQYGNSLSRFGKGTKLEIKRTVAAPSVFIFPPSDEQLKSGTASVVCLLNNFYPREAKVQWKVDNALQSGNSQESVTEQDSKDSTYSLKSTLTLSKADYEKHKVYACEVTHQGLSSPVTKSFNRGEC heavy 2: QVQLVESGGGVVQPGRSLRLSCAASGFTFSSYGMHWVRQAPGKELEWVAVIWYDGSNKYYAESVKGRFIISRDKSKNTLYLQMNSLRAEDTAVYYCARAGGIAAAGLYYYYGMDVWGQGTTVTVSSASTKGPSVFPLAPSSKSTSGGTAALGCLVKDYFPEPVTVSWNSGALTSGVHTFPAVLQSSGLYSLESVVTVPSSSLGTQTYICNVNHKPSNTKVDKKVEPKSCDKTHTCPPCPAPELLGGPSVFLFPPKPKDTLMISRTPEVTCVVVDVSHEDPEVKFNWYVDGVEVHNAKTKPCEEQYGSTYRCVSVLTVLHQDWLNGKEYKCKVSNKALPAPIEKTISKAKGQPREPQVYTLPPSRKEMTKNQVSLTCLVKGFYPSDIAVEWESNGQPENNYKTTPPVLKSDGSFFLYSKLTVDKSRWQQGNVFSCSVMHEALHNHYTQKSLSLSPGK
89	70	iPS:327291 (bispecific antibody, human IgG1, kappa, lambda, N297G) light 1: EIVLTQSPATLSLSPGERATLSCRASQSVGRSLHWYQQKPGQAPRLLIKYASQSLSGIPARFSGSGSGTDFTLTISSLEPEDFAVYYCHQSSRLPFTFGPGTKVDIKRTVAAPSVFIFPPSDEQLKSGTASVVCLLNNFYPREAKVQWKVDNALQSGNSQESVTEQDSKDSTYSLESTLTLSKADYEKHKVYACEVTHQGLSSPVTKSFNRGEC heavy 1: not shown light 2: QSVLTQPPSVSAAPGQKVTISCSGSSSNIGNNYVSWYQQLPGTAPKLLIYDNNKRPSGIPDRFSGSKSGTSTTLGITGLQTGDEADYYCGTWDSRLSAVVFGGGTKLTVLGQPKANPTVTLFPPSSEELQANKATLVCLISDFYPGAVTVAWKADGSPVKAGVETTKPSKQSNNKYAAKSYLSLTPEQWKSHRSYSCQVTHEGSTVEKTVAPTECS heavy 2: QVQLVESGGGVVQPGRSLRLSCAASGFTFSSFGMHWVRQAPGKGLEWVAVISFDGSIKYSVDSVKGRFTISRDNSKNTLFLQMNSLRAEDTAVYYCARDRLNYYDSSGYYHYKYYGMAVWGQGTTVTVSSASTKGPSVFPLAPSSKSTSGGTAALGCLVKDYFPEPVTVSWNSGALTSGVHTFPAVLQSSGLYSLESVVTVPSSSLGTQTYICNVNHKPSNTKVDKKVEPKSCDKTHTCPPCPAPELLGGPSVFLFPPKPKDTLMISRTPEVTCVVVDVSHEDPEVKFNWYVDGVEVHNAKTKPCEEQYGSTYRCVSVLTVLHQDWLNGKEYKCKVSNKALPAPIEKTISKAKGQPREPQVYTLPPSRKKMTKNQVSLTCLVKGFYPSDIAVEWESNGQPENNYKTTPPVLKSDGSFFLYSKLTVDKSRWQQGNVFSCSVMHEALHNHYTQKSLSLSPGK
12	75	iPS:327682 (bispecific antibody, human IgG1, kappa, N297G) light 1: not shown heavy 1: not shown light 2: EIVLTQSPGTLSLSPGERATLSCRASQSVSSGYLTWYQQKPGQAPRLLIYGASSRATGIPDRFSGSGSGTDFTLTISRLEPEDFAVYYCQQYGNSLSRFGKGTKLEIKRTVAAPSVFIFPPSDEQLKSGTASVVCLLNNFYPREAKVQWKVDNALQSGNSQESVTEQDSKDSTYSLKSTLTLSKADYEKHKVYACEVTHQGLSSPVTKSFNRGEC heavy 2: QVQLVESGGGVVQPGRSLRLSCAASGFTFSSYGMHWVRQAPGKELEWVAVIWYDGSNKYYAESVKGRFIISRDKSKNTLYLQMNSLRAEDTAVYYCARAGGIAAAGLYYYYGMDVWGQGTTVTVSSASTKGPSVFPLAPSSKSTSGGTAALGCLVKDYFPEPVTVSWNSGALTSGVHTFPAVLQSSGLYSLESVVTVPSSSLGTQTYICNVNHKPSNTKVDKKVEPKSCDKTHTCPPCPAPELLGGPSVFLFPPKPKDTLMISRTPEVTCVVVDVSHEDPEVKFNWYVDGVEVHNAKTKPCEEQYGSTYRCVSVLTVLHQDWLNGKEYKCKVSNKALPAPIEKTISKAKGQPREPQVYTLPPSRKEMTKNQVSLTCLVKGFYPSDIAVEWESNGQPENNYKTTPPVLKSDGSFFLYSKLTVDKSRWQQGNVFSCSVMHEALHNHYTQKSLSLSPGK
79	89	iPS:326631 (bispecific antibody, human IgG2, kappa, lambda) light 1: not shown heavy 1: QVQLQQSGPGLVKPSQTLSLTCAISGDSVSSNSATWNWIRQSPSRGLEWLGRTYYRSKWSNHYAVSVKSRITINPDTSKSQFSLQLNSVTPEDTAVYYCARGTWKQLWFLDHWGQGTLVTVSSASTKGPSVFPLAPCSRSTSESTAALGCLVKDYFPEPVTVSWNSGALTSGVHTFPAVLQSSGLYSLKSVVTVPSSNFGTQTYTCNVDHKPSNTKVDKTVERKCCVECPPCPAPPVAGPSVFLFPPKPKDTLMISRTPEVTCVVVDVSHEDPEVQFNWYVDGVEVHNAKTKPREEQFNSTFRVVSVLTVVHQDWLNGKEYKCKVSNKGLPAPIEKTISKTKGQPREPQVYTLPPSREEMTKNQVSLTCLVDGFYPSDIAVEWESNGQPENNYDTTPPMLDSDGSFFLYSDLTVDKSRWQQGNVFSCSVMHEALHNHYTQKSLSLSPGK light 2: not shown heavy 2: not shown
60	70	iPS:327290 (bispecific antibody, human IgG1, kappa, lambda, N297G) light 1: DIQLTQSPSFLSASVGDRVTITCRASQSIGRSLHWYQQKPGKAPKLLIKYASQSLSGVPSRFSGSGSGTEFTLTISSLQPEDFATYYCHQSSRLPFTFGPGTKVDIKRTVAAPSVFIFPPSDEQLKSGTASVVCLLNNFYPREAKVQWKVDNALQSGNSQESVTEQDSKDSTYSLESTLTLSKADYEKHKVYACEVTHQGLSSPVTKSFNRGEC heavy 1: not shown light 2: QSVLTQPPSVSAAPGQKVTISCSGSSSNIGNNYVSWYQQLPGTAPKLLIYDNNKRPSGIPDRFSGSKSGTSTTLGITGLQTGDEADYYCGTWDSRLSAVVFGGGTKLTVLGQPKANPTVTLFPPSSEELQANKATLVCLISDFYPGAVTVAWKADGSPVKAGVETTKPSKQSNNKYAAKSYLSLTPEQWKSHRSYSCQVTHEGSTVEKTVAPTECS heavy 2: QVQLVESGGGVVQPGRSLRLSCAASGFTFSSFGMHWVRQAPGKGLEWVAVISFDGSIKYSVDSVKGRFTISRDNSKNTLFLQMNSLRAEDTAVYYCARDRLNYYDSSGYYHYKYYGMAVWGQGTTVTVSSASTKGPSVFPLAPSSKSTSGGTAALGCLVKDYFPEPVTVSWNSGALTSGVHTFPAVLQSSGLYSLESVVTVPSSSLGTQTYICNVNHKPSNTKVDKKVEPKSCDKTHTCPPCPAPELLGGPSVFLFPPKPKDTLMISRTPEVTCVVVDVSHEDPEVKFNWYVDGVEVHNAKTKPCEEQYGSTYRCVSVLTVLHQDWLNGKEYKCKVSNKALPAPIEKTISKAKGQPREPQVYTLPPSRKKMTKNQVSLTCLVKGFYPSDIAVEWESNGQPENNYKTTPPVLKSDGSFFLYSKLTVDKSRWQQGNVFSCSVMHEALHNHYTQKSLSLSPGK
